Experimental data: patent US20210079074A1 (Alector, published 2021)
Blank lines part the entries; values can stand above or below the binder they belong to. No end group written: not given here. *: point of attachment. Biotin = O=C1N[C@H]2[C@H](CS[C@H]2CCCCC(=O)*)N1

Assays:
[1] = target: T1, recombinant MS4A4A soluble polypeptide JS1; assay: ELISA, 1 ug/ml antibody
T1 construct: also called JS1.His; loop grafted antigen
How it was run: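 Humanized anti-MS4A4A antibodies, expressed as human IgG1/kappa in Expi293 cells and protein A-purified, were added to streptavidin plates precoated 1 h with 1 μg/ml biotinylated antigen. Antibodies at 1, 0.33 or 0.11 μg/ml bound 1 hr at room temperature with shaking; detection used HRP goat anti-human kappa.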

[2] = target: T2, huMS4A4A-ECL2 free-peptide (human); assay: peptide ELISA, murine antibody
T2 construct: synthetic, free or BSA-conjugated, coated on the plate; also called human MS4A4A ECL2 peptide; huMS4A4A-ELC2 free-peptide
T2 peptide: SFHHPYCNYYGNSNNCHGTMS
Method: Coated plates were then blocked with ELISA diluent (PBS+0.5% BSA+0.05% Tween20) for 1-hour, washed 3×300 μL in PBST (PBS+0.05% Tween20, Thermo Cat#28352), and then the antibodies were added to the plate ([…]). After 30 mins incubation (room temperature, with shaking), the plates were washed 3×300 μL in PBST. […] After a final set of washes (3×300 μL in PBST), 50 μL of TMB substrate (BioFx Cat#TMBW-1000-01) was added and the reaction was then quenched after 5-10 mins with 50 μL of stop solution (BioFx Cat#BSTP-1000-01). The quenched reaction wells were detected for absorbance at […] with a BioTek Synergy Microplate Reader using GENS 2.04 software.

[3] = target: T3, recombinant MS4A4A soluble polypeptide JS5; assay: ELISA, 0.4 ug/ml antibody
T3 construct: also called JS5.His

[4] = target: T4, negative control polypeptide JS4; assay: ELISA, biotin-antigen on streptavidin plate
T4 construct: negative control for JS1; also called JS4.His
Method: (§1) Anti-MS4A4A antibodies of the present disclosure were tested for their ability to bind to the different recombinant MS4A4A soluble polypeptides, as described in Example 2, as follows. Nucleic acid encoding the VH and VL domains of humanized anti-MS4A4A antibodies of the present disclosure were cloned into pcDNA3.4 vector which contains either the human IgG1 heavy chain constant domain or human kappa constant domain. The humanized anti-MS4A4A antibodies were expressed in Expi293 cells and were purified by Mab select antibody purification resin (GE Healthcare Life Science, cat#17519902) following the manufacture's protocol. ELISA was performed to measure binding of anti-MS4A4A antibodies of the present disclosure the recombinant MS4A4A soluble polypeptides. 1 μg/ml biotinylated antigens were preincubated on the streptavidin-coated ELISA plates (Thermo Scientific, cat#PI15120) for 1 hour. Plates were washed 3 times, followed by the addition of antibodies (1 μg/ml, 0.33 μg/ml, and 0.11 μg/ml antibodies. Plates were incubated at room temperature with shaking for 1 hr, washed 3 times, then 1/2500 dilution of HRP conjugates goat anti human kappa antibodies added (SigmaAldrich cat#. A7164-1ML).

[5] = target: T5, recombinant MS4A4A soluble polypeptide JS6; assay: ELISA, biotin-antigen on streptavidin plate
T5 construct: also called JS6.His
Method: as §1

[6] = target: T3, recombinant MS4A4A soluble polypeptide …; assay: ELISA, biotin-antigen on streptavidin plate
Method: as §1

[7] = target: T1, recombinant MS4A4A soluble polypeptide …; assay: ELISA, biotin-antigen on streptavidin plate
Method: as §1

[8] = target: T6, negative control polypeptide JS10; assay: ELISA, biotin-antigen on streptavidin plate
T6 construct: negative control for JS5 and JS6; also called JS10.His
Method: as §1

peptide 4A.11 = target: T7, peptide 4A.11 (human); assay: SPR array, biotin-peptide on streptavidin chip
T7 peptide: Biotin-YYGNSNNCHGTMSIL
Source text: (§2) A panel of overlapping peptides derived from the extracellular loops (ECLs) of human MS4A4A (SEQ ID NO:1) were synthesized by JPT peptides (Berlin, Germany). These peptides were 15 amino acids in length, each offset by 2 amino acids. The peptides were biotinylated on the N-terminus. Peptides 4A.1 through 4A.4 were derived from human MS4A4A ECL1 and surrounding regions. Peptides 4A.5 through 4A.12 were derived from human MS4A4A ECL2 and surrounding regions.
(§3) The peptide library was printed onto a streptavidin-coated chip (Xantec SAD50M, Dusseldorf, Germany) using the Continuous Flow Microspotter (CFM). […] The peptide library was immobilized onto the chip at 250 nM per peptide diluted into HBS-EP+ buffer (Teknova Cat #H8022) with 1 mg/ml BSA and 1 μg/ml mouse IgG-Biotin. Following immobilization, the chip surface was deactivated with 1M ethanolamine at pH 8.5 for 10 minutes. Hybridoma supernatants and purified anti-MS4A4A antibodies were diluted in HBS-EP+ buffer with 1 mg/ml BSA and injected onto the chip. Duplicate measurements for each anti-MS4A4A antibody were taken to ensure reproducibility. Binding characteristics were determined for each peptide-antibody combination, allowing the mapping of the linear peptide region each antibody interacts with.

peptide 4A.4 = target: T8, peptide 4A.4 (human); assay: SPR array, biotin-peptide on streptavidin chip
T8 peptide: Biotin-ASNTYGSNPISVYIG
Source text: as §2, §3

peptide 4A.2 = target: T9, peptide 4A.2 (human); assay: SPR array, biotin-peptide on streptavidin chip
T9 peptide: Biotin-MMCMASNTYGSNPIS
Source text: as §2, §3

peptide 4A.6 = target: T10, peptide 4A.6 (human); assay: SPR array, biotin-peptide on streptavidin chip
T10 peptide: Biotin-FYSFHHPYCNYYGNS
Source text: as §2, §3

peptide 4A.10 = target: T11, peptide 4A.10 (human, cysteine pairing not given here); assay: SPR array, biotin-peptide on streptavidin chip
T11 peptide: Biotin-CNYYGNSNNCHGTMS
Source text: as §2, §3

peptide 4A.8 = target: T12, peptide 4A.8 (human, cysteine pairing not given here); assay: SPR array, biotin-peptide on streptavidin chip
T12 peptide: Biotin-HHPYCNYYGNSNNCH
Source text: as §2, §3

peptide 4A.7 = target: T13, peptide 4A.7 (human); assay: SPR array, biotin-peptide on streptavidin chip
T13 peptide: Biotin-SFHHPYCNYYGNSNN
Source text: as §2, §3

peptide 4A.9 = target: T14, peptide 4A.9 (human, cysteine pairing not given here); assay: SPR array, biotin-peptide on streptavidin chip
T14 peptide: Biotin-PYCNYYGNSNNCHGT
Source text: as §2, §3

peptide 4A.12 = target: T15, peptide 4A.12 (human); assay: SPR array, biotin-peptide on streptavidin chip
T15 peptide: Biotin-GNSNNCHGTMSILMG
Source text: as §2, §3

peptide 4A.1 = target: T16, peptide 4A.1 (human); assay: SPR array, biotin-peptide on streptavidin chip
T16 peptide: Biotin-ITMMCMASNTYGSNP
Source text: as §2, §3

peptide 4A.3 = target: T17, peptide 4A.3 (human); assay: SPR array, biotin-peptide on streptavidin chip
T17 peptide: Biotin-CMASNTYGSNPISVY
Source text: as §2, §3

peptide 4A.5 = target: T18, peptide 4A.5 (human); assay: SPR array, biotin-peptide on streptavidin chip
T18 peptide: Biotin-LAFYSFHHPYCNYYG
Source text: as §2, §3

human MS4A4A [9] = target: T19, human MS4A4A (human, UniProt Q96JQ5 1-239); assay: cell-based or functional assay
[10] = target: FcγRIIIa receptor (V158 variant) (UniProt P08637 17-254); assay: cell-based or functional assay
human MS4A4A [11] = target: T19, human MS4A4A; assay: cell-based or functional assay; remark: listed apart in the source
[12] = target: T20, FcγRIIa receptor (H131 variant) (UniProt P12318 34-317, limits assumed); assay: cell-based or functional assay
T20 sequence (looked up): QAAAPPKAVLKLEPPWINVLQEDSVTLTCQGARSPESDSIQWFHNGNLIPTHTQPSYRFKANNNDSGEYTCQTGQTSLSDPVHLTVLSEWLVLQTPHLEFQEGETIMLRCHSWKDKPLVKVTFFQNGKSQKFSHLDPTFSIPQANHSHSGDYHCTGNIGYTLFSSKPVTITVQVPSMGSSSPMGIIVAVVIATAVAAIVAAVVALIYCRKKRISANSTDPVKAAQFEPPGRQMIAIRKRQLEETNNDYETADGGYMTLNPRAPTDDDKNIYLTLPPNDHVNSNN

Sequence of FcγRIIIa receptor (V158 variant) (P08637 other isoform, or with tags, fused parts or gaps mutant limits assumed): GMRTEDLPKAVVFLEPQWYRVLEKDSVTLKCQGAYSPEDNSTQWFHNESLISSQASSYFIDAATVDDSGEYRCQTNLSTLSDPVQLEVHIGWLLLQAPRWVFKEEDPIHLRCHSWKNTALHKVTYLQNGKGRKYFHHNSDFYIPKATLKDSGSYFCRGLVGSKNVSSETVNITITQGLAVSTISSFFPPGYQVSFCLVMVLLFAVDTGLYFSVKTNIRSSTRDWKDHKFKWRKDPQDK

OD450 [1]: 1.96
binding result [2]: binds
OD450 [3]: 0.925
ELISA OD [4]: 0.138
ELISA OD [5]: 1.67
ELISA OD [6]: 1.73
ELISA OD [7]: 2.02
ELISA OD [8]: 0.112
SPR binding response (peptide 4A.11): -6.5
SPR binding response (peptide 4A.4): -7.9
SPR binding response (peptide 4A.2): -11.5
SPR binding response (peptide 4A.6): 486
SPR binding response (peptide 4A.10): -4.5
SPR binding response (peptide 4A.8): 309
SPR binding response (peptide 4A.7): 446
SPR binding response (peptide 4A.9): 225
SPR binding response (peptide 4A.12): -5.2
SPR binding response (peptide 4A.1): -11.2
SPR binding response (peptide 4A.3): -10.6
SPR binding response (peptide 4A.5): 383
B1: anti-MS4A4A antibody 4A-21 (antibody, V domains shown)
VH: QIQLVQSGPELKKPGETVKISCKASGYIFTSYGLSWVKQTPGKGLKWMGWINTYSGVPTYANDFKGRFAFSLETSASTTYLRINNLKNDDTATYFCARSLVDYWGQGTPLTVSS
VL: not shown
notes: murine parental; tested as mouse IgG1 or as human IgG1 Fc chimera (hFc), told under assay; also called 4A-21.hFc

EC50 of the increase of mTREM2, primary human macrophages (human MS4A4A [9]): 0.028 µg/mL
luminescence, ADCC reporter, 3.048316 ng/mL [10]: 324
luminescence, ADCC reporter, 9.144947 ng/mL [10]: 356
luminescence, ADCC reporter, 27.43484 ng/mL [10]: 347
luminescence, ADCC reporter, 82.30453 ng/mL [10]: 360
luminescence, ADCC reporter, 246.9136 ng/mL [10]: 332
luminescence, ADCC reporter, 740.7407 ng/mL [10]: 363
luminescence, ADCC reporter, 2,222.222 ng/mL [10]: 431
luminescence, ADCC reporter, 6,666.667 ng/mL [10]: 415
luminescence, ADCC reporter, 20,000 ng/mL [10]: 442
EC50 of the increase of sTREM2, primary human macrophages (human MS4A4A [11]): 0.025 µg/mL
luminescence, ADCP reporter, 3.048316 ng/mL [12]: 42
luminescence, ADCP reporter, 9.144947 ng/mL [12]: 45
luminescence, ADCP reporter, 27.43484 ng/mL [12]: 39
luminescence, ADCP reporter, 82.30453 ng/mL [12]: 58
luminescence, ADCP reporter, 246.9136 ng/mL [12]: 51
luminescence, ADCP reporter, 740.7407 ng/mL [12]: 61
luminescence, ADCP reporter, 2,222.222 ng/mL [12]: 55
luminescence, ADCP reporter, 6,666.667 ng/mL [12]: 227
luminescence, ADCP reporter, 20,000 ng/mL [12]: 250
B2: anti-MS4A4A antibody 4A-313 NSLF huIgG1 (antibody)
heavy: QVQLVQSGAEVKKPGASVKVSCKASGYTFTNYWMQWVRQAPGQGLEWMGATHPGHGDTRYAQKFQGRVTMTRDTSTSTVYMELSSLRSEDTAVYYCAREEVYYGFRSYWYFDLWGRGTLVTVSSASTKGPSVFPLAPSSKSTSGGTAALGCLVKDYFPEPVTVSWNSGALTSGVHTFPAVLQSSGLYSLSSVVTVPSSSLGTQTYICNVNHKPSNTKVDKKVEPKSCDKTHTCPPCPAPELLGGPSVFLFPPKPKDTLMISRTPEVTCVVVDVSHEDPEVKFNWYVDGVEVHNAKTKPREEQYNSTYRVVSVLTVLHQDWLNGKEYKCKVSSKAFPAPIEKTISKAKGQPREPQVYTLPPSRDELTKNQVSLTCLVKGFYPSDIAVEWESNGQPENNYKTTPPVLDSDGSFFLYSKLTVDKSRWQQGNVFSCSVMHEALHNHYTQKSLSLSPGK
light: EIVLTQSPATLSLSPGERATLSCRASESVDNYGVSRMNWYQQKPGQAPRLLIYGASNQGSGIPARFSGSGSGTDFTLTISSLEPEDFAVYYCQQSKEVPPTFGGGTKVEIKRTVAAPSVFIFPPSDEQLKSGTASVVCLLNNFYPREAKVQWKVDNALQSGNSQESVTEQDSKDSTYSLSSTLTLSKADYEKHKVYACEVTHQGLSSPVTKSFNRGEC
